Reference: the RNAGym collection of RNA variant scans (doi:10.1093/molbev/msab373)

B1: Azoarcus group I ribozyme (parent)
chain: GUGCCUUGCGCCGGGAAACCACGCAAGGGAUGGUGUCAAAUUCGGCGAAACCUAAGCGCCCGCCCGGGCGUAUGGCAACGCCGAGCCAAGCUUCGGCGCCUGCGCCGAUGAAGGUGUAGAGACUAGACGGCACCCACCUAAGGCAAACGCUAUGGUGAAGGCAUAGUCCAGGGAGUGGCGAAAGUCACACAAACCGG

Variants of: B1
Experiment: reverse-splicing fitness (ratio to wild type); higher = more active; in vitro selection; Mg2+ level not given
Method in brief: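 An in vitro group I ribozyme library with randomized positions was T7-transcribed and gel-purified. In triplicate, 10 pmol RNA in EPPS pH 7.5 was reacted with 50 pmoles of a 30-nt RNA substrate for 1 h at 37 °C across several added MgCl2 levels (1–48 mM), then stopped with EDTA. Products were reverse transcribed from a substrate-complementary primer, PCR-amplified and sequenced (HiSeq 4000). Fitness is a variant's read proportion after selection over that before, normalised to wild type.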

Variant	reverse-splicing fitness
C82U A111G A120U A145U C150G C169A U176G	0.00207
C82U A111G A120U A145U C150G C169A U176C	0.00216
C82U A111G A120U A145U C150G C169A U176A	0.00259
C82U A111G A120U A145U C150G C169A	0.00272
C82U A111G A120U A145U C150G C169G	0.00266
C82U A111G A120U A145U C150G C169U	0.00235
C82U A111G A120U A145U C169U U176G	0.0016
C82U A111G A120U A145U C169U U176A	0.00252
C82U A111G A120U A145U C169U U176C	0.00254
C82U A111G A120U A145G C150G C169G U176A	0.0073
C82U A111G A120U A145G C150G C169G U176C	0.00401
C82U A111G A120U A145G C150G C169G U176G	0.00255
C82U A111G A120U A145C C150A C169A U176C	0.00185
C82U A111G A120U A145C C150A C169A U176A	0.00213
C82U A111G A120U A145C C150A C169A U176G	0.00186
C82U A111G A120U A145C C150A C169A	0.00199
C82U A111G A120U A145C C150A C169G	0.00197
C82U A111G A120U A145C C150A C169U	0.00217
C82U A111G A120G A145U C150G C169A U176G	0.00391
C82U A111G A120G A145U C150G C169A U176A	0.00905
C82U A111G A120G A145U C150G C169A U176C	0.00917

Variant	reverse-splicing fitness
C82U A111G A120G A145U C150U C169G U176A	0.0116
C82U A111G A120G A145U C150U C169G U176C	0.0132
C82U A111G A120G A145U C150U C169G U176G	0.00409
C82U A111G A120G A145U C150U C169A U176A	0.0119
C82U A111G A120G A145U C150U C169A U176G	0.0045
C82U A111G A120G A145U C150U C169A U176C	0.00928
C82U A111G A120G C169G U176C	0.0247
C82U A111G A120G C169G U176A	0.0186
C82U A111G A120G C169G U176G	0.00369
C82U A111G A120U A145U C150A C169G	0.00226
C82U A111G A120U A145U C150A C169U	0.00292
C82U A111G A120U A145U C150A C169A	0.00228
C82U A111G A120U A145C C169U U176A	0.00232
C82U A111G A120U A145C C169U U176G	0.00126
C82U A111G A120U A145C C169U U176C	0.00209
C82U A111G A120G A145G C169G	0.0129
C82U A111G A120G A145G C169A	0.0117
C82U A111G A120G A145G C169U	0.011
C82U A111G A120U A145C C169G U176G	0.00126
C82U A111G A120U A145C C169G U176C	0.0021
C82U A111G A120U A145C C169G U176A	0.00218

Variant	reverse-splicing fitness
C82U A111G A120U A145G C150A C169A U176C	0.00365
C82U A111G A120U A145G C150A C169A U176A	0.00624
C82U A111G A120U A145G C150A C169A U176G	0.00258
C82U A111G A120U A145G C169A	0.00248
C82U A111G A120U A145G C169G	0.00348
C82U A111G A120U A145G C169U	0.00406
C82U A111G A120G A145U C150U	0.0126
C82U A111G A120G A145U C150G	0.00645
C82U A111G A120G A145U C150A	0.00726
C82U A111G A120U A145U C150U C169U U176C	0.00261
C82U A111G A120U A145U C150U C169U U176G	0.00192
C82U A111G A120U A145U C150U C169U U176A	0.00262
C82U A111G A120U A145G C150A C169G U176G	0.00221
C82U A111G A120U A145G C150A C169G U176A	0.0124
C82U A111G A120U A145G C150A C169G U176C	0.00574
C82U A111G A120G C150G C169U U176G	0.00601
C82U A111G A120G C150G C169U U176A	0.0121
C82U A111G A120G C150G C169U U176C	0.0124
C82U A111G A120U A145C C150U C169A	0.00187
C82U A111G A120U A145C C150U C169G	0.00245
C82U A111G A120U A145C C150U C169U	0.00249

Variant	reverse-splicing fitness
C82U A111G A120G A145U C169A U176A	0.0102
C82U A111G A120G A145U C169A U176C	0.00896
C82U A111G A120G A145U C169A U176G	0.00425
C82U A111G A120G A145G C169U U176C	0.0164
C82U A111G A120G A145G C169U U176A	0.0209
C82U A111G A120G A145G C169U U176G	0.00414
C82U A111G A120G C150U C169U U176C	0.015
C82U A111G A120G C150U C169U U176A	0.0221
C82U A111G A120G C150U C169U U176G	0.00611
C82U A111G A120U A145G C150U C169G U176G	0.00189
C82U A111G A120U A145G C150U C169G U176A	0.00913
C82U A111G A120U A145G C150U C169G U176C	0.00432
C82U A111G A120G C150A C169A	0.00997
C82U A111G A120G C150A C169U	0.00735
C82U A111G A120G C150A C169G	0.00939
C82U A111G A120U A145U C150G	0.00775
C82U A111G A120U A145U C150A	0.00631
C82U A111G A120U A145U C150U	0.0272
C82U A111G A120G A145U C150U C169A	0.00925
C82U A111G A120G A145U C150U C169G	0.0107
